Reference: patent US20030198640A1 (Human Genome Sciences, published 2003)

B1: full-length human TR6 (without Fc), baculovirus/Sf9 (receptor)
chain: VAETPTYPWRDAETGERLVCAQCPPGTFVQRPCRRDSPTTCGPCPPRHYTQFWNYLERCRYCNVLCGEREEEARACHATHNRACRCRTGFFAHAGFCLEHASCPPGAGVIAPGTPSQNTQCQPCPPGTFSASSSSSEQCQPHRNCTALGLALNVPGSSSHDTLCTSCTGFPLSTRVPGAEECERAVIDFVAFQDISIKRLQRLLQALEAPEGWGPTPRAGRAALQLKLRRRLTELLGAQDGALLVRLLQALRVARMPGLERSVRERFLPVH
notes: also called soluble TR6; non-Fc form of TR6
B2: TNFR1-Fc (Fc fusion, UniProt P19438 30-211, looked up)
chain: LVPHLGDREKRDSVCPQGKYIHPQNNSICCTKCHKGTYLYNDCPGPGQDTDCRECESGSFTASENHLRHCLSCSKCRKEMGQVEISSCTVDRDTVCGCRKNQYRHYWSENLFQCFNCSLCLNGTVHLSCQEKQNTVCTCHAGFFLRENECVSCSNCKKSLECTKLCLPQIENVKGTEDSGTT
notes: extracellular domain; not shown: Fc part
B3: full-length human LIGHT on cells (293F stable transfectants; endogenous LIGHT on activated human T cells) (ligand)
chain: MEESVVRPSVFVVDGQTDIPFTRLGRSHRRQSCSVARVGLGLLLLLMGAGLAVQGWFLLQLHWRLGEMVTRLPDGPAGSWEQLIQERRSHEVNPAAHLTGANSSLTGSGGPLLWETQLGLAFLRGLSYHDGALVVTKAGYYYIYSKVQLGGVGCPLGLASTITHGLYKRTPRYPEELELLVSQQSPCGRATSSSRVWWDSSFLGGVVHLEAGEEVVVRVLDERLVRLRDGTRSYFGAFMV
notes: also called cell membrane LIGHT; LIGHT-transfectants
B4: RANK (Fc-fusion form of the extracellular domain) (Fc fusion, UniProt Q9Y6Q6 30-212, looked up)
chain: IAPPCTSEKHYEHLGRCCNKCEPGKYMSSKCTTTSDSVCLPCGPDEYLDSWNEEDKCLLHKVCDTGKALVAVVAGNSTTPRRCACTAGYHWSQDCECCRRNTECAPGLGAQHPLQLNKDTVCKPCLAGYFSDAFSSTDKCRPWTNCTFLGKRVEHHGTEKSDAVCSSSLPARKPPNEPHVYLP
notes: as for B2
B5: TNF-gamma-β (form used not stated) (ligand)
chain: LKGQEFAPSHQQVYAPLRADGDKPRAHLTVVRQTPTQHFKNQFPALHWEHELGLAFTKNRMNYTNKFLLIPESGDYFIYSQVTFRGMTSECSEIRQAGRPNKPDSITVVITKVTDSYPEPTQLLMGTKSVCEVGSNWFQPIYLGAMFSLQEGDKLMVNVSDISLVDYTKEDKTFFGAFLL
B6: DcR1 (Fc-fusion form of the extracellular domain) (Fc fusion, UniProt O14798 26-221, looked up)
chain: ATTARQEEVPQQTVAPQQQRHSFKGEECPAGSHRSEHTGACNPCTEGVDYTNASNNEPSCFPCTVCKSDQKHKSSCTMTRDTVCQCKEGTFRNENSPEMCRKCSRCPSGEVQVSNCTSWDDIQCVEEFGANATVETPAAEETMNTSPGTPAPAAEETMNTSPGTPAPAAEETMTTSPGTPAPAAEETMTTSPGTPA
notes: as for B2
B7: OPG (Fc-fusion form) (Fc fusion, UniProt O00300 22-194, looked up)
chain: ETFPPKYLHYDEETSHQLLCDKCPPGTYLKQHCTAKWKTVCAPCPDHYYTDSWHTSDECLYCSPVCKELQYVKQECNRTHNRVCECKEGRYLEIEFCLKHRSCPPGFGVVQAGTPERNTVCKRCPDGFFSNETSSKAPCRKHTNCSVFGLLLTQKGNATHDNICSGNSESTQK
notes: as for B2
B8: human LIGHT protein, natural secreted form (aa 83-240), E. coli (ligand)
chain: LIQERRSHEVNPAAHLTGANSSLTGSGGPLLWETQLGLAFLRGLSYHDGALVVTKAGYYYIYSKVQLGGVGCPLGLASTITHGLYKRTPRYPEELELLVSQQSPCGRATSSSRVWWDSSFLGGVVHLEAGEEVVVRVLDERLVRLRDGTRSYFGAFMV
notes: also called soluble LIGHT
B9: AITR (Fc-fusion form of the extracellular domain) (Fc fusion, UniProt Q9Y5U5 26-162, looked up)
chain: QRPTGGPGCGPGRLLLGTGTDARCCRVHTTRCCRDYPGEECCSEWDCMCVQPEFHCGDPCCTTCRHHPCPPGQGVQSQGKFSFGFQCIDCASGTFSGGHEGHCKPWTDCTQFGFLTVFPGNKTHNAVCVPGSPPAEP
notes: as for B2
B10: DcR2 (Fc-fusion form of the extracellular domain) (Fc fusion, UniProt Q9UBN6 56-211, looked up)
chain: ATIPRQDEVPQQTVAPQQQRRSLKEEECPAGSHRSEYTGACNPCTEGVDYTIASNNLPSCLLCTVCKSGQTNKSSCTTTRDTVCQCEKGSFQDKNSPEMCRTCRTGCPRGMVKVSNCTPRSDIKCKNESAASSTGKTPAAEETVTTILGMLASPYH
notes: as for B2
B11: OX40 (Fc-fusion form of the extracellular domain) (Fc fusion, UniProt P43489 29-214, looked up)
chain: LHCVGDTYPSNDRCCHECRPGNGMVSRCSRSQNTVCRPCGPGFYNDVVSSKPCKPCTWCNLRSGSERKQLCTATQDTVCRCRAGTQPLDSYKPGVDCAPCPPGHFSPGDNQACKPWTNCTLAGKHTLQPASNSSDAICEDRDPPATQPQETQGPPARPITVQPTEAWPRTSQGPSTRPVEVPGGRA
notes: as for B2

Key:
[1] = target: B8; experiment: BIAcore
Procedure: (§1) The amount of bound protein was determined during washing of the flow cell with HBS buffer (10 mM HEPES, pH 7.4, 150 mM NaCl, 3.4 mM EDTA, 0.005% Surfactant P20). The flow cell surface was regenerated by washing off the bound proteins with 20 microliters of 10 mM glycine-HCl pH 2.3. […] The on- and off-rates were determined according a kinetic evaluation program in the BiaEvaluation 3 software using a 1:1 binding model and the global analysis method.
(§2) We determined the kinetics of binding of LIGHT to both the Fe and non-Fc versions of TR6 according to BIAcore analysis.

[2] = target: T1, full length TNF-gamma-beta expressed on the cell surface (HEK293F stable transfectants); cells transfected … (human, UniProt O95150 1-251); experiment: flow cytometry competition on HEK293F cells expressing TNF-gamma-beta; competitor of DR3-Fc
T1 construct: also called TNF-gamma-beta expressing cells
T1 sequence: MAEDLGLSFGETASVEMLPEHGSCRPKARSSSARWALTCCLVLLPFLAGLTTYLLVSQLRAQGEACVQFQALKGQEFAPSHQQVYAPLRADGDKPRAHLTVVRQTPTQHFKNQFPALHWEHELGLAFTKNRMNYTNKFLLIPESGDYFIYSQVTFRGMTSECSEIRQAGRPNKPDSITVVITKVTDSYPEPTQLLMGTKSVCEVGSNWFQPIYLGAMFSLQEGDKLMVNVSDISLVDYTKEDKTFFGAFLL
Procedure: (§3) These cells were used to screen the Fc-fusion form of the extracellular domain of TNFR family members, including TNFR1, Fas, HveA, DR3, DR4, DR5, DR6, DcR1, DcR2, TR6, OPG, RANK, AITR, TAC1, CD40, and OX40. […] TR6 has been previously described as a decoy receptor (Pitti et al., Nature 396:699-703 (1998); Yu et al., J. Biol. Chem. 274:13733-6 (1999)) capable of competing with Fas and HveA for binding of FasL and LIGHT, respectively.
(§4) One million cells, in 0.1 ml of FACS buffer (PBS, 0.1% BSA, 0.1% NaN₃), were incubated with 0.1-1 microgram of protein or antibody at RT for 15 min. The cells were washed with 3 ml of FACS buffer, reacted with biotinylated primary antibody, and stained with PE-conjugated secondary antibody at RT for 15 min. Cells were then washed again, resuspended in 0.5 microgram/ml of propidium iodide, and live cells were gated and analyzed on a FACScan using the CellQuest software (BD Biosciences).

[3] = target: T1, full length TNF-gamma-beta expressed on …; experiment: flow cytometry on HEK293F cells expressing full length TNF-gamma-beta
Procedure: as §3, §4

[4] = target: T2, TR6-Fc (full-length human TNFR-6 alpha, SEQ ID NO:6 aa 1-300, fused to the Fc domain of human IgG1) (human, UniProt O95407 30-300); experiment: flow cytometry on 293 cells overexpressing LIGHT
T2 construct: also called TNFR-6 alpha Fc fusion protein; DcR3-Fc; not shown: Fc domain of human IgG1
T2 sequence: B1 chain
Procedure: Cells were incubated with Fc-fusion proteins in 100 ul FACS buffer (d-PBS with 0.1% sodium azide and 0.1% BSA) for 15-20 minutes at room temperature. The cells were washed once and reacted with goat F (ab)₂ anti-human IgG (Southern Biotechnology, Birmingham, Ala.) for 15 minutes at room temperature. After wash, the cells were resuspended in 0.5 ug/ml propidium iodide, and live cells were gated and analyzed on a FACScan (BD Biosciences, Mansfield, Mass.).
This was tested on 293 cells overexpressing LIGHT according to flow cytometry.

[5] = target: B1; experiment: flow cytometry competition on activated human T cells
[6] = target: T3, DR3, full length, on cells (transfected 293T cells; naturally expressed on TF-1 cells and T cells) (human, UniProt Q93038 25-417); experiment: cell-based or functional assay
T3 sequence: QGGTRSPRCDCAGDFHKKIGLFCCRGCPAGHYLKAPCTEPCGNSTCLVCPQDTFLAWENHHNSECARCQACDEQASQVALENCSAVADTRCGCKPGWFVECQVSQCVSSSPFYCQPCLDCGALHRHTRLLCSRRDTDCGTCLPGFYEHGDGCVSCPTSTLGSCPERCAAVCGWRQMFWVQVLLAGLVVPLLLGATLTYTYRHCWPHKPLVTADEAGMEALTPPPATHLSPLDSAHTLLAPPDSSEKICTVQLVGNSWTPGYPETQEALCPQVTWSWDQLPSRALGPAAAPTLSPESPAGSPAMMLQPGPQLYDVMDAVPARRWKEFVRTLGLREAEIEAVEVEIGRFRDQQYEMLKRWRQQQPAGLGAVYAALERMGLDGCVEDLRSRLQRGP

[7] = target: B1; experiment: BIAcore; non-Fc TR6
[8] = target: T2, TR6-Fc (full-length human TNFR-6 alpha, …); experiment: BIAcore; TR6-Fc form
Procedure: as §1, §2

[9] = target: T4, TR2-Fc (extracellular domain of human TR2, aa 1-192, fused to the Fc domain of human IgG1) (human, UniProt Q92956 39-192); experiment: BIAcore, TR2-Fc immobilised; TR2-Fc, not TR6
T4 construct: range 1-192; also called HveA-Fc; not shown: Fc domain of human IgG1
T4 sequence (looked up): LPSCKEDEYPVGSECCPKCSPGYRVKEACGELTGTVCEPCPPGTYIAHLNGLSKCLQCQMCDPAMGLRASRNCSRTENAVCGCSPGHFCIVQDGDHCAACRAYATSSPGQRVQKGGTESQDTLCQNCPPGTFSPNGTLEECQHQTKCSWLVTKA

## B1
[1]
  fold off rate against TR6-Fc: ~2 fold
[2]
  molar ratio TR6 to DR3-Fc at which no DR3-Fc binding was detected: 2 molar ratio (TR6:DR3-Fc)

## B2
[3]
  binding result: no binding

## B3
[4]
  binding result: binds
[5]
  binding result: binds

## B4
[3]
  binding result: no binding

## B5
[6]
  IFNγ production by anti-CD2 stimulated lamina propria mononuclear cells (ELISA): ≥ 2 fold

## B6
[3]
  binding result: no binding

## B7
[3]
  binding result: no binding

## B8
[7]
  Kd: 14.3 nM
  koff: 0.00483 s⁻¹
  kon: 338000 M⁻¹ s⁻¹
[8]
  Kd: 5.46 nM
  koff: 0.0023 s⁻¹
  kon: 422000 M⁻¹ s⁻¹
[9]
  Kd: 4.56 nM

## B9
[3]
  binding result: no binding

## B10
[3]
  binding result: no binding

## B11
[3]
  binding result: no binding
